According to patent US20210301026A1 (ULTRAHUMAN TWELVE, published 2021):
Changes are numbered by the printed parent chain. Names and notes keep the numbering of the source. Where two headings read alike, the source gives them in different places. Blank lines part the entries; values can stand above or below the binder they belong to.

Tests used:
[1] = target: T1, human CSF1R, membrane-presented on cells (human, UniProt P07333 20-972); test: flow cytometry on HEK-293 cells expressing human CSF1R, MFI
T1 construct: HEK-293 cells transiently transfected with human CSF1R (flow cytometry); the native receptor on primary human monocytes in the proliferation assay; also called human CSF1R+ HEK-293 cells; CSF1R on primary human CD14+ monocytes

[2] = target: T2, monomeric human CSF1R ectodomain protein (human, UniProt P07333 20-517); test: AlphaScreen competition with mu0301 IgG4(S228P) for biotinylated monomeric human CSF1R
T2 construct: also called biotinylated monomeric human CSF1R
Procedure: The AlphaScreen assay (Perkin Elmer) was performed in a 25 μl final volume in 384-well white microtiter plates (Greiner). The reaction buffer contained 1×PBS pH 7.3 (Oxoid, Cat. nr. BR0014G) and 0.05% (v/v) Tween® 20 (Sigma, Cat. nr. P9416). Purified IgG samples were titrated in three fold serial dilutions starting at 500 nM final concentration and incubated with biotinylated human CSF1R for 20 minutes at room temperature. […] The emission of light was measured in the EnVision multilabel plate reader (Perkin Elmer) and analysed using the EnVision manager software. Values were reported as Counts Per Second (CPS) and corrected for crosstalk. The EC50 values were calculated using the […] in GraphPad Prism software (GraphPad Software, La Jolla, Calif.).

[3] = target: T3, cynomolgus monkey CSF1R human Fc tagged recombinant protein (cynomolgus monkey, UniProt P07333 20-517 (human entry), limits assumed); test: direct titration ELISA on coated cyno CSF1R-Fc, IgG4(S228P) format, OD 450 nm
T3 construct: also called cyno CSF1R-Fc
T3 chain: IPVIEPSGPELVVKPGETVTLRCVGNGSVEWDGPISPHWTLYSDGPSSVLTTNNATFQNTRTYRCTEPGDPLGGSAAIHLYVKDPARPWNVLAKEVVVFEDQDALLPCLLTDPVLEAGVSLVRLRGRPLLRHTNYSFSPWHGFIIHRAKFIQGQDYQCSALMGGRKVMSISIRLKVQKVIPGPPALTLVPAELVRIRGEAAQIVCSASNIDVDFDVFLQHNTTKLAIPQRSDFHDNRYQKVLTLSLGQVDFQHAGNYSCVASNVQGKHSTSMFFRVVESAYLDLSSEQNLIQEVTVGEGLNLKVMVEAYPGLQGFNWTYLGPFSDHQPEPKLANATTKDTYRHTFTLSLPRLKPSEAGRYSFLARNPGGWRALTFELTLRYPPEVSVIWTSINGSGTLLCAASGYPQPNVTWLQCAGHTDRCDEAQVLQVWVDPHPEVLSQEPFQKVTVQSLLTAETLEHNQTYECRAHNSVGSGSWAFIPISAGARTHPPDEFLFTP
Procedure: (§1) Binding and cross-reactivity of the lead panel to the recombinant proteins was initially assessed by binding ELISA. The human CSF1R human Fc tagged recombinant protein and the cynomolgus monkey CSF1R human Fc tagged recombinant protein were coated to the surface of MaxiSorp™ flat-bottom 96 well plate at 1 μg/ml. The purified IgG samples were titrated in two fold serial dilutions starting from 500 nM to 0.008 nM and allowed to bind to the coated antigens. The Fabs were detected using mouse anti-c-myc antibody followed by donkey anti-mouse IgG conjugated to horseradish peroxidase. The IgGs were detected using the mouse anti-human IgG conjugated to horseradish peroxidase. Binding signals were visualized with 3,3′,5,5′-Tetramethylbenzidine Substrate Solution (TMB) and the absorbance measured at 450 nm.

[4] = target: T4, human CSF1R human Fc tagged recombinant protein (human, UniProt P07333 20-517); test: direct titration ELISA on coated human CSF1R-Fc, IgG4(S228P) format, OD 450 nm
T4 construct: also called human CSF1R-Fc
Procedure: as §1

[5] = target: T5, monomeric cynomolgus monkey CSF1R ectodomain protein (cynomolgus monkey, UniProt P07333 20-517 (human entry)); test: SPR Biacore, IgG captured, monomeric CSF1R analyte
T5 construct: also called monomeric cyno CSF1R; Cyno CSF1R
T5 chain: T3 chain
Procedure: (§2) Affinity (KD) of purified IgGs was determined via SPR with antigen in-solution on a Biacore 3000 (GE). A mouse anti-human antibody (CH1 specific) was immobilized on a CM5 Sensor Chip to a level of 2000 RU in acetate buffer at pH 4.5 using amine coupling following the Wizard instructions for two channels. One channel was used for background signal correction. The standard running buffer HBS-EP pH 7.4 was used. Regeneration was performed with a single injection of 10 μl of 10 mM Glycine at pH 1.5 at 20 μl/minute. IgG samples were injected for 2 minutes at 50 nM at 30 μl/min followed by and off-rate of 60 seconds. The monomeric ectodomain protein (human CSF1R or cynomolgus monkey CSF1R) was injected in two fold serial dilutions from 100 nM down to 3.1 nM, for 2 minutes at 30 μl/min followed by an off-rate of 300 seconds. The obtained sensorgrams were analysed using the Biacore 3000 evaluation (BIAevaluation) software. The KD was calculated by simultaneous fitting of the association and dissociation phases to a 1:1 Langmuir binding model.
(§3) Biacore analyses of binding affinity were performed for all IgGs to solution-phase, monomeric human and cyno CSF1R proteins (Table 6). […] Affinity differentials of less than 3-fold between human and cyno target orthologs are highly beneficial in pre-clinical drug development analyses as they allow more accurate design and interpretation of e.g. monkey safety, PK and PD modelling experiments.

[6] = target: T2, monomeric human CSF1R ectodomain protein; test: SPR Biacore, IgG captured, monomeric CSF1R analyte
Procedure: as §2, §3

[7] = target: T5, monomeric cynomolgus monkey CSF1R …; test: SPR Biacore; KD on monomeric cyno CSF1R against KD of the same antibody on monomeric human CSF1R as reference
Procedure: as §2

human insulin = target: T6, human insulin (human, UniProt P01308 25-54; P01308 90-110, limits assumed); test: ELISA on human insulin (development risk, polyreactivity), binding score
T6 construct: Coated antigen of the polyreactivity ('PK-risk indicator') ELISA
T6 sequence (P01308 25-54 limits assumed, chain 1 of 2): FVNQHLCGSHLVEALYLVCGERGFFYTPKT
T6 sequence (P01308 90-110 limits assumed, chain 2 of 2): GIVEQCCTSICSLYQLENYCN

[8] = target: T5, monomeric cynomolgus monkey CSF1R …; test: SPR Biacore, IgG captured, monomeric CSF1R analyte
Procedure: as §2

[9] = target: T2, monomeric human CSF1R ectodomain protein; test: SPR Biacore, IgG captured, monomeric CSF1R analyte; remark: listed apart in the source
Procedure: as §2

[10] = target: T3, cynomolgus monkey CSF1R human Fc tagged …; test: direct titration ELISA on coated cyno CSF1R-Fc, IgG4(S228P) format, OD 450 nm
Procedure: as §1

[11] = target: T5, monomeric cynomolgus monkey CSF1R …; test: SPR Biacore; KD on monomeric cyno CSF1R against KD of the same clone on monomeric human CSF1R as reference
Procedure: as §2

EC50 (read off the curve) [1]: ~1 nM | IC50 [2]: 2.56 nM | EC50 (read off the curve) [3]: ~0.09 nM | EC50 (read off the curve) [4]: ~0.08 nM | Kd [5]: 0.85 nM | koff [5]: 0.00026 s⁻¹ | kon [5]: 310000 M⁻¹ s⁻¹ | Kd [6]: 0.29 nM | koff [6]: 0.00042 s⁻¹ | kon [6]: 1.5e+06 M⁻¹ s⁻¹
B1: 26B07 (antibody, human IgG4, V domains shown)
VH: QVQLVQSGAEVKKPGSSVKVSCKASGYTFSSYYMIWVRQAPGQGLEWMGDINPYNGGANYAQKFQGRVTITADESTSTAYMELSSLRSEDTAVYYCAREGPYFSNLYVMDYWGQGTLVTVSS
VL: EIVLTQSPATLSLSPGERATLSCRASQSVEYQGDNYLNWYQQKPGQAPRLLIYAASNRATGIPARFSGSGSGTDFTLTISSLEPEDFAVYYCQLSNEDLLTFGGGTKVEIK
notes: Library-derived clone, tested as human IgG4(S228P)/Ckappa IgG; framework residue limits counted on the grafts

EC50 (read off the curve) [1]: ~1 nM | human/cyno affinity differential [7]: > 3 fold | IC50 [2]: 2.38 nM | EC50 (read off the curve) [3]: ~0.08 nM | binding result (human insulin): no binding | Kd [8]: 0.66 nM | koff [8]: 0.00033 s⁻¹ | kon [8]: 500000 M⁻¹ s⁻¹ | Kd [9]: 0.21 nM | koff [9]: 0.00047 s⁻¹ | kon [9]: 2.3e+06 M⁻¹ s⁻¹ | EC50 (read off the curve) [10]: ~0.07 nM | Kd [5]: 0.66 nM | koff [5]: 0.00033 s⁻¹ | kon [5]: 500000 M⁻¹ s⁻¹ | Kd [6]: 0.21 nM | koff [6]: 0.00047 s⁻¹ | kon [6]: 2.3e+06 M⁻¹ s⁻¹
B2: humanized anti-CSF1R antibody 0301 (hu0301) (antibody, human IgG4, V domains shown)
VH: B1 VH with S30T, S31D, Y32N, A58T, N59T, Y60F, A61N, Q65K, E74K, G100S
VL: B1 VL with R24K, E30D, Q32D, L37M, R58L, A59E, T60S, Q93H, L100S
notes: also called mAb-1

human/cyno affinity differential [11]: < 3 fold | IC50 [2]: 2.16 nM | Kd [5]: 0.42 nM | koff [5]: 0.00023 s⁻¹ | kon [5]: 550000 M⁻¹ s⁻¹ | Kd [6]: 0.19 nM | koff [6]: 0.00034 s⁻¹ | kon [6]: 1.8e+06 M⁻¹ s⁻¹
B3: 29H09 (antibody, human IgG4, V domains shown)
VH: B1 VH with S30T
VL: B1 VL with E30S, Q32E, D34E
notes: as for B1

human/cyno affinity differential [11]: < 3 fold | IC50 [2]: 1.53 nM | Kd [5]: 0.25 nM | koff [5]: 0.00014 s⁻¹ | kon [5]: 570000 M⁻¹ s⁻¹ | Kd [6]: 0.11 nM | koff [6]: 0.00019 s⁻¹ | kon [6]: 1.9e+06 M⁻¹ s⁻¹
B4: 30E06 (antibody, human IgG4, V domains shown)
VH: B1 VH with S30T, A58T, N59T
VL: B1 VL with E30S, Q32E, D34E, N38A, R58L
notes: Library-derived clone; tested as human IgG4(S228P) / human Ckappa IgG; also called 30E6; mAb-3
